Test results: publication PMC6778195 (2019)

Biological target: J1a DBLβ domain (wild type) (Plasmodium falciparum)
Test: SPR

B1: ICAM-1^D1D5-Fc (Fc fusion)
chain: QTSVSPSKVILPRGGSVLVTCSTSCDQPKLLGIETPLPKKELLLPGNNRKVYELSNVQEDSQPMCYSNCPDGQSTAKTFLTVYWTPERVELAPLPSWQPVGKNLTLRCQVEGGAPRANLTVVLLRGEKELKREPAVGEPAEVTTTVLVRRDHHGANFSCRTELDLRPQGLELFENTSAPYQLQTFVLPATPPQLVSPRVLEVDTQGTVVCSLDGLFPVSEAQVHLALGDQRLNPTVTYGNDSFSAKASVSVTAEDEGTQRLTCAVILGNQSQETLQTVTIYSFPAPNVILTKPEVSEGTEVTVKCEAHPRAKVTLNGVPAQPLGPRAQLLLKATPEDNGRSFSCSATLEVAGQLIHKNQTRELRVLYGPRLDERDCPGNWTWPENSQQTPMCQAWGNPLPELKCLKDGTFPLPIGESVTVTRDLEGTYLCRARSTQGEVTRKVTVNVLSPRYE
  Kd: 262 nM
